From patent US20170137467A1 (CHROMOTEK, published 2017)
Square brackets hold non-standard residues; d marks the D form. GABA = NCCCC(=O)O

T1: BC2T A5N (human)
T1 construct: position 5 library, row N
T1 peptide: Ac-PDRKNAVSHWQQ-NH2

T2: BC2T P1T (human)
T2 construct: position 1 library, row T
T2 peptide: Ac-TDRKAAVSHWQQ-NH2

T3: BC2T P1Q (human)
T3 construct: position 1 library, row Q
T3 peptide: Ac-QDRKAAVSHWQQ-NH2

T4: BC2T A5C(Abu) (human, SMILES …)
T4 construct: position 5 library, row C(Abu) / C*
T4 peptide: Ac-PDRK[GABA]AVSHWQQ-NH2

T5: BC2T P1D (human)
T5 construct: position 1 library, row D
T5 peptide: Ac-DDRKAAVSHWQQ-NH2

T6: BC2T D2S (human)
T6 construct: position 2 library, row S
T6 peptide: Ac-PSRKAAVSHWQQ-NH2

T7: BC2T V7C(Abu) (human, also: Abu described as gamma-amino butyric acid)
T7 construct: position 7 library, row C(Abu) / C*
T7 peptide: Ac-PDRKAA[GABA]SHWQQ-NH2

T8: BC2T A6S (human)
T8 construct: position 6 library (BC2TA6X), row S
T8 peptide: Ac-PDRKASVSHWQQ-NH2

T9: BC2T A6K (human)
T9 construct: position 6 library (BC2TA6X), row K
T9 peptide: Ac-PDRKAKVSHWQQ-NH2

T10: BC2T A5P (human)
T10 construct: position 5 library, row P
T10 peptide: Ac-PDRKPAVSHWQQ-NH2

T11: BC2T R3Y (human)
T11 construct: position 3 library (BC2TR3X), row Y
T11 peptide: Ac-PDYKAAVSHWQQ-NH2

T12: BC2T P1S (human)
T12 construct: position 1 library, row S
T12 peptide: Ac-SDRKAAVSHWQQ-NH2

T13: BC2T A6E (human)
T13 construct: position 6 library (BC2TA6X), row E
T13 peptide: Ac-PDRKAEVSHWQQ-NH2

T14: BC2T A5S (human)
T14 construct: position 5 library, row S
T14 peptide: Ac-PDRKSAVSHWQQ-NH2

T15: BC2T D2R (human)
T15 construct: position 2 library, row R
T15 peptide: Ac-PRRKAAVSHWQQ-NH2

T16: BC2T V7P (human)
T16 construct: position 7 library, row P
T16 peptide: Ac-PDRKAAPSHWQQ-NH2

T17: BC2T D2Q (human)
T17 construct: position 2 library, row Q
T17 peptide: Ac-PQRKAAVSHWQQ-NH2

T18: BC2T A6T (human)
T18 construct: position 6 library (BC2TA6X), row T
T18 peptide: Ac-PDRKATVSHWQQ-NH2

T19: BC2T R3F (human)
T19 construct: position 3 library (BC2TR3X), row F
T19 peptide: Ac-PDFKAAVSHWQQ-NH2

T20: BC2T A5Q (human)
T20 construct: position 5 library, row Q
T20 peptide: Ac-PDRKQAVSHWQQ-NH2

T21: BC2T K4D (human)
T21 construct: position 4 library, row D
T21 peptide: Ac-PDRDAAVSHWQQ-NH2

T22: BC2T K4F (human)
T22 construct: position 4 library, row F
T22 peptide: Ac-PDRFAAVSHWQQ-NH2


How the values were obtained:
Test in all cases: library pulldown, LC-MS of supernatant; ratio vs GFP-Nb control (0=captured, 1=not captured)
BC2T A5N = target: T1, BC2T A5N
From the text: (§1) In total, 12 different BC2T libraries displaying all 20 proteinogenic amino acids in one single position of the peptide were used in immunoprecipitation experiments. […] The direct comparison with the GFP-Nb made it possible to determine the quantitative degree of peptide capture without the need of labeled standards. […] The more peptide was captured the more the value approximates 0. It was not possible to discriminate between isoleucine (I) and leucine (L) peptide versions since these peptides are isobaric.
(§2) To investigate the binding specificity of the BC2T and derived mutants peptide libraries for each amino acid position of the sequence […] (SEQ ID NO:4) were synthesized with acetyl and amide groups located at the N-termini or C-termini respectively (Intavis). […] Incubations were performed in 300 μl PBS/0.01% CHAPS for 1 h on a HulaMixer (Life Technologies). Subsequent to a centrifugation step 10 μl supernatant were analyzed in a LC-MS procedure. Peptides were separated using an UltiMate3000 RSLCnano System (Thermo Scientific), composed of a C18 PepMap100μ-Precolumn (300 μm×5 mm; particle size: 5 μm; pore size: 100 Å—Thermo Scientific) and a C18 analytical column (Acclaim Rapid Separation LC (RSLC) Column: 150 mm×5 mm; particle size: 2.2 μm; pore size: 100 Å—Thermo Scientific). A step gradient was applied starting at 8% and ending after 20 min at 30% eluent B (80% acetonitrile, 20% H₂O, 0.1% formic acid).

BC2T P1T = target: T2, BC2T P1T
From the text: as §1, §2

BC2T P1Q = target: T3, BC2T P1Q
From the text: as §1, §2

BC2T A5C(Abu) = target: T4, BC2T A5C(Abu)
From the text: as §1, §2

BC2T P1D = target: T5, BC2T P1D
From the text: as §1, §2

BC2T D2S = target: T6, BC2T D2S
From the text: as §1, §2

BC2T V7C(Abu) = target: T7, BC2T V7C(Abu)
From the text: as §1, §2

BC2T A6S = target: T8, BC2T A6S
From the text: as §1, §2

BC2T A6K = target: T9, BC2T A6K
From the text: as §1, §2

BC2T A5P = target: T10, BC2T A5P
From the text: as §1, §2

BC2T R3Y = target: T11, BC2T R3Y
From the text: as §1, §2

BC2T P1S = target: T12, BC2T P1S
From the text: as §1, §2

BC2T A6E = target: T13, BC2T A6E
From the text: as §1, §2

BC2T A5S = target: T14, BC2T A5S
From the text: as §1, §2

BC2T D2R = target: T15, BC2T D2R
From the text: as §1, §2

BC2T V7P = target: T16, BC2T V7P
From the text: as §1, §2

BC2T D2Q = target: T17, BC2T D2Q
From the text: as §1, §2

BC2T A6T = target: T18, BC2T A6T
From the text: as §1, §2

BC2T R3F = target: T19, BC2T R3F
From the text: as §1, §2

BC2T A5Q = target: T20, BC2T A5Q
From the text: as §1, §2

BC2T K4D = target: T21, BC2T K4D
From the text: as §1, §2

BC2T K4F = target: T22, BC2T K4F
From the text: as §1, §2

ratio (BC2T A5N) | ratio (BC2T P1T) | ratio (BC2T P1Q) | ratio (BC2T A5C(Abu)) | ratio (BC2T P1D) | ratio (BC2T D2S) | ratio (BC2T V7C(Abu)) | ratio (BC2T A6S) | ratio (BC2T A6K) | ratio (BC2T A5P) | ratio (BC2T R3Y) | ratio (BC2T P1S) | ratio (BC2T A6E) | ratio (BC2T A5S) | ratio (BC2T D2R) | ratio (BC2T V7P) | ratio (BC2T D2Q) | ratio (BC2T A6T) | ratio (BC2T R3F) | ratio (BC2T A5Q) | Binder | further results
0.3 | 0.5 | 0.6 | 0.1 | 1 | 0.1 | 0.2 | 0.5 | 1 | 0.1 | 0.7 | 0.3 | 1.1 | 0.1 | 0.1 | 1 | 0.1 | 0.2 | 0.8 | 0.2 | BC2 nanobody (BC2-Nb) (VHH, immobilised on agarose/sepharose beads in this assay; also called BC2 nanotrap (immobilised form); not shown: C-terminal 6xHis-tag added by pHEN6 vector) VHH: QVQLVESGGGLVQPGGSLTLSCTASGFTLDHYDIGWFRQAPGKEREGVSCINNSDDDTYYADSVKGRFTIFMDNAKDTVYLQMNSLKPEDTAIYYCAEARGCKRGRYEYDFWGQGTQVTVSS | ratio (BC2T K4D): 1; ratio (BC2T K4F): 0.3
0.5 | 0.7 | 0.7 | 0.3 | 0.8 | 0.3 | 0.5 | 0.8 | 0.8 | 0.4 | 1 | 0.6 | 1 | 0.4 | 0.2 | 1 | 0.2 | 0.4 | 1 | 0.3 | BC2-NbR106S (VHH, immobilised on beads in this assay; not shown: C-terminal 6xHis-tag added by pHEN6 vector) VHH: QVQLVESGGGLVQPGGSLTLSCTASGFTLDHYDIGWFRQAPGKEREGVSCINNSDDDTYYADSVKGRFTIFMDNAKDTVYLQMNSLKPEDTAIYYCAEARGCKRGSYEYDFWGQGTQVTVSS | ratio (BC2T K4D): 1; ratio (BC2T K4F): 0.7
